# In patent EP4613859A1, “TLR SIGNALING INHIBITORY PEPTIDE AND COMPOSITION INCLUDING SAME FOR PREVENTION OR TREATMENT OF INFLAMMATORY DISEASES” (Korea Institute of Science and Technology, priority 2022, dated 2025):
# Tests used:
# human MAL = assay: Phage display screening of TIR domain-derived peptide library against immobilized MAL, NGS analysis after four rounds; format: binding; settings: for NGS count: phages remaining after fourth round
# Procedure: (§1) First, vector cloning was performed by synthesizing a DNA sequence for expressing each peptide belonging to the library constructed in Example 1. Vector cloning was performed using p3/p8 phagemids.
# (§2) After the fourth round, the remaining phages were obtained by binding to the finally immobilized target proteins, and peptide sequences binding to the target and the relative distribution of each sequence were confirmed by performing NGS analysis on phagemids in the phages.
# human MYD88 = assay: Phage display screening of TIR domain-derived peptide library against immobilized MyD88, NGS analysis after four rounds; format: binding; settings: for NGS count: phages remaining after fourth round
# Procedure: as §1, §2
# human MAL (human) = human MAL (human) (UniProt P58753); assay: P3 phage display panning on plate-immobilised MAL, after round 4, NGS
# human MyD88 (human) = human MyD88 (human) (UniProt Q99836); assay: P8 phage display panning on plate-immobilised MyD88, after round 4, NGS
# [1] = P3_MAL: library displayed on P3 coat protein
# [2] = P3_MAL: relative distribution of the sequence in NGS
# [3] = P3_MyD88: library displayed on P3 coat protein
# [4] = P3_MyD88: relative distribution of the sequence in NGS
# [5] = P8_MAL: library displayed on P8 coat protein
# [6] = P8_MAL: relative distribution of the sequence in NGS
# Sequence of UniProt Q99836 (Q99836 155-296 limits assumed): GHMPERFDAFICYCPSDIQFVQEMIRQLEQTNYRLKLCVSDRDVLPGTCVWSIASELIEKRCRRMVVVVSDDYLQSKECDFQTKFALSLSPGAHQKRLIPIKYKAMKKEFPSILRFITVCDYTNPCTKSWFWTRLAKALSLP
# Sequence of UniProt P58753 (P58753 79-221 limits assumed): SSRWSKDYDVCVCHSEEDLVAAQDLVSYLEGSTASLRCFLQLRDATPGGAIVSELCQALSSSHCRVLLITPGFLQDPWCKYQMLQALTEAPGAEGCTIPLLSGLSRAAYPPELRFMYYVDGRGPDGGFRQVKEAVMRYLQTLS
molecule,measurement,setting,value
YAFTGHLHRYLVQRGV,NGS count,human MAL; [1],43764
same,Population,human MAL; [2],16.44%
same,NGS count,human MYD88; [3],13420
same,Population,human MYD88; [4],3.91%
GFLYQAFAREGFKIFM,NGS count,human MAL; [1],1764
same,Population,human MAL; [2],0.66%
same,NGS count,human MYD88; [3],2579
same,Population,human MYD88; [4],0.75%
DTKLKKGESIAPELLR,NGS count,human MAL; [5],5617
same,Population,human MAL; [6],1.74%
same,NGS count,human MYD88; [3],2465
same,Population,human MYD88; [4],0.72%
KNLFNELVSKNIRTFM,NGS count,human MAL; [1],3259
same,Population,human MAL; [2],1.22%
same,NGS count,human MYD88; [3],8543
same,Population,human MYD88; [4],2.49%
QLIQQWIELHLHQLHL,NGS count,human MAL; [5],9394
same,Population,human MAL; [6],2.90%
same,NGS count,human MYD88; P8_MyD88: library displayed on P8 coat protein,1605
same,Population,human MYD88; P8_MyD88: relative distribution of the sequence in NGS,0.62%
EWIREQLRPALKERLP,NGS count,human MAL; [1],2354
same,Population,human MAL; [2],0.88%
same,NGS count,human MYD88; [3],16821
same,Population,human MYD88; [4],4.90%
LKVESWRQALEKAGKL,NGS count,human MAL; [1],5180
same,Population,human MAL; [2],2.32%
same,NGS count,human MYD88; [3],16847
same,Population,human MYD88; [4],4.91%
ESILNQLRRSSQSIAN,NGS count,human MAL; [1],3680
same,Population,human MAL; [2],1.38%
same,NGS count,human MYD88; [3],1976
same,Population,human MYD88; [4],0.58%
NELVHVWSSKANSLVG,NGS count,human MAL; [1],1836
same,Population,human MAL; [2],0.69%
same,NGS count,human MYD88; [3],8816
same,Population,human MYD88; [4],2.57%
LKWGDPYFWSKLRYAM,NGS count,human MAL; [1],5128
same,Population,human MAL; [2],1.93%
same,NGS count,human MYD88; [3],8310
same,Population,human MYD88; [4],2.42%
RLLKWKEALHQFHSWV,NGS count,human MAL (human),14900 count
same,Population,human MAL (human),5.61%
YLLLSVFQTIFARRTE,NGS count,human MyD88 (human),7160 count
same,Population,human MyD88 (human),2.76%
KWFWDKLIYALSRNPH,NGS count,human MAL (human),2800 count
same,Population,human MAL (human),1.05%
HQAFWNRLWAKLKPPT,NGS count,human MAL (human),1930 count
same,Population,human MAL (human),0.73%
HWIDWEYFVGIEDHIK,NGS count,human MyD88 (human),3420 count
same,Population,human MyD88 (human),1.32%
DPQDLEWFYERLFSQM,NGS count,human MyD88 (human),4490 count
same,Population,human MyD88 (human),1.73%
DWVWDYLLPNLEGPAG,NGS count,human MyD88 (human),19400 count
same,Population,human MyD88 (human),7.47%
WALDELLKILYANETM,NGS count,human MyD88 (human),10500 count
same,Population,human MyD88 (human),4.05%
WDFASNMEQFWDRLYY,NGS count,human MyD88 (human),7350 count
same,Population,human MyD88 (human),2.83%
DPQDLDWFYERLVSLF,NGS count,human MyD88 (human),54800 count
same,Population,human MyD88 (human),21.1%
RGFLSHLRHHLQAKDH,NGS count,human MAL (human),15100 count
same,Population,human MAL (human),5.66%
KMQKWKDALYEAANLS,NGS count,human MAL (human),4430 count
same,Population,human MAL (human),1.66%
YLRADDSWFWEKLLYA,NGS count,human MyD88 (human),4070 count
same,Population,human MyD88 (human),1.57%
IDDDHLTYLVRLLLSR,NGS count,human MyD88 (human),3060 count
same,Population,human MyD88 (human),1.18%
LGYHWIDWEYFVGIED,NGS count,human MyD88 (human),25200 count
same,Population,human MyD88 (human),9.72%
DYASSTWWLRELLQIA,NGS count,human MyD88 (human),4110 count
same,Population,human MyD88 (human),1.58%
PQDLEWFYERLVSLIL,NGS count,human MyD88 (human),10600 count
same,Population,human MyD88 (human),4.07%
DPQDLQWFYERLVSLI,NGS count,human MyD88 (human),5730 count
same,Population,human MyD88 (human),2.21%
YASSSWALDELLRILY,NGS count,human MyD88 (human),2330 count
same,Population,human MyD88 (human),0.9%
PNLRTKVLNYLMRTKT,NGS count,human MAL (human),26900 count
same,Population,human MAL (human),10.1%
DWFLSKLSQHILKREK,NGS count,human MAL (human),4580 count
same,Population,human MAL (human),1.72%
SFFWNKLRYHLPAPQH,NGS count,human MAL (human),2300 count
same,Population,human MAL (human),0.86%
LQNQWKLALTKVANLV,NGS count,human MAL (human),2280 count
same,Population,human MAL (human),0.86%
VEPTQVRKQSGAVENA,NGS count,human MAL (human),2280 count
same,Population,human MAL (human),0.86%
VQWDDPWFWDKLAYAM,NGS count,human MyD88 (human),4900 count
same,Population,human MyD88 (human),1.89%
HHKGSYGEALAEHEKR,NGS count,human MAL (human),3060 count
same,Population,human MAL (human),1.15%
DSLFWDRLLYSLHVTE,NGS count,human MyD88 (human),7590 count
same,Population,human MyD88 (human),2.92%
YAASPWWFDELVKIVG,NGS count,human MyD88 (human),3430 count
same,Population,human MyD88 (human),1.32%
SAAYDDFWDRLIRMIE,NGS count,human MyD88 (human),5340 count
same,Population,human MyD88 (human),2.06%
YASYDDNDYYWVTHVLLRHL,NGS count,human MyD88 (human),5890 count
same,Population,human MyD88 (human),2.66%
VANILGYHWIDWEYFV,NGS count,human MyD88 (human),2030 count
same,Population,human MyD88 (human),0.78%
WALDELLQILHARELF,NGS count,human MyD88 (human),14400 count
same,Population,human MyD88 (human),5.55%
FLNFRGLDVRNYFLGH,NGS count,human MAL (human),2860 count
same,Population,human MAL (human),1.07%
SLRKNLVSNLIEEFKR,NGS count,human MAL (human),3570 count
same,Population,human MAL (human),1.34%
DPQDLDWFYERLVSLL,NGS count,human MyD88 (human),13100 count
same,Population,human MyD88 (human),5.06%
